The results in this text go back to patent publication US20170362324A1 (Biogen, published 2017).

In general, IC50 refers to the midpoint of a concentration-inhibition curve. A high value points to lower potency. Broadly, the EC50 is the midpoint of the concentration-response curve.

In assay [1] the target is T1, human soluble αvβ5 protein (extracellular domains of human αv and β5 integrin subunits) (human, UniProt P06756 31-992; P18084 24-719).
T1 construct: also called biotin-αvβ5; hsαvβ5
Nature of the assay: ELISA, inhibition of soluble αvβ5 binding to coated human plasma vitronectin. Here is the method:
Vitronectin Inhibition ELISA: 96-well microtiter plates were coated with 5 μg/ml purified human plasma vitronectin diluted in PBS (50 μl/well) at 4° C. overnight. After the coating solution was removed, the plates were blocked with 300 μl/well of 1% BSA/TBS at 25° C. for 1 hr. The plate was washed with wash buffer (0.05% Tween-20 in TBS containing 1 mM CaCl₂ and 1 mM MgCl₂), and dilutions of humanized antibodies mixed with 1 nM soluble αvβ5 protein in TBS containing 1% BSA, 1 mM CaCl₂ and 1 mM MgCl₂ were added (50 μl/well) and incubated at 25° C. for 1 hr. The plate was washed 4 times with wash buffer in an automated plate washer and incubated sequentially with 50 μl/well of the anti-beta5 monoclonal antibody 15F11 (at 0.5 ug/mL) in for 1 hr at 25° C. in TBS containing 1% BSA, 1 mM CaCl₂ and 1 mM MgCl₂. After washing the plate 4 times with wash buffer, 100 μl/well of a 1:5000 dilution of a peroxidase-conjugated goat anti-mouse antibody in TBS containing 1% BSA, 1 mM CaCl₂ and 1 mM MgCl₂ were added and incubated for 1 hr at 25° C. Bound protein was detected using the TMB substrate and indicated by the absorbency measured at 450 nm.
In parallel, the humanized ALULA antibodies were tested in two adhesion assays. One measured the ability of each antibody to inhibit the binding of soluble αvβ5 to purified human plasma vitronectin. In the other assay, the murine BaF3 cell line was stably transfected with human αv and β5 subunits, and the adhesion of these cells to vitronectin was determined using a fluorescence endpoint.
On the technique in general: ELISA stands for enzyme-linked immunosorbent assay.

Assay [2] has as its target T2, human αvβ5 expressed on BaF3 cells (stably transfected with human αv and β5 subunits) (human, UniProt P06756 31-1048; P18084 24-799). Nature of the assay: cell-based or functional assay.
The target of assay [3] is T2, human αvβ5 expressed on BaF3 cells …. Nature of the assay: cell-based or functional assay. The source holds these as a separate data set.
Assay [4] concerns the target T1, human soluble αvβ5 protein …. Nature of the assay: competition ELISA against 1 nM murine ALULA on coated soluble human αvβ5. Here is the method: Competition ELISA: A 96-well microtiter plate was coated with 50 μl/well of 5 μg/mL soluble human αvβ5 protein at 4° C. overnight. The plate was washed with wash buffer (0.05% Tween-20 in PBS) four times in an automated plate washer. 300 μl/well of 1% BSA in PBS was added and incubated for 1 hr at 25° C. to block nonspecific binding. The plate was washed as above, and dilutions of humanized antibodies mixed with 1 nM murine ALULA in PBS containing 1% BSA, were added (50 μl/well). The plate was incubated for 1 hr at 25° C., washed, and then incubated for 40 minutes with 100 μl/well of […] goat anti-mouse antibody. Bound antibody was detected using 3,3′,5,5′-tetramethylbenzidine (TMB). Binding was indicated by the absorbency measured at 450 nm.
The binding of each construct to soluble, purified human αvβ5 protein was determined by a competition ELISA with murine ALULA (FIG. 4). […] The remaining constructs behaved similarly, with version H4/L2 showing the lowest IC50 value in this assay.

In assay [5] the target is T2, human αvβ5 expressed on BaF3 cells …. Nature of the assay: FACS on αvβ5-BaF3 cells, unpurified antibody. The method, then: FACS Binding Assay: Cells were washed one time in PBS, and then resuspended in FACS buffer (1×PBS, 1% BSA, 1 mM CaCl₂, and 1 mM MgCl₂). 1×10⁶ cells were then incubated on ice for 1 hr in FACS buffer containing the test antibody in a total volume of 50 μl. After incubation, the cells were washed two times with ice cold FACS buffer, resuspended in 50 μl of FACS buffer containing 3 μg/ml goat anti-mouse IgG AlexaFluor488 (Jackson ImmunoResearch), and incubated on ice for 30 min. The cells were then washed twice with ice cold FACS buffer and fixed in 1% PFA overnight. Cell aggregates were removed by filtering through 40 μm filter plates (Millipore) and binding of the labeled secondary antibody was monitored by flow cytometry using a FACS Calibur (BD Biosciences).
(§1) Screening of all combinations of heavy chain versions VH0, VH1, VH2, VH3, VH4, or VH5, with light chains VL0, VL1, VL2, or VL3 was carried out using unpurified proteins in conditioned cell media. The binding of each construct to biotin-conjugated human αvβ5 protein was determined using a solid-phase binding assay (ELISA) and by FACS, and the ability of each construct to block ligand binding was determined using a vitronectin cell adhesion assay (Table 1).

Assay [6] concerns the target T1, human soluble αvβ5 protein …. Nature of the assay: ELISA, biotin-αvβ5 on streptavidin plate, unpurified antibody. Here is the method:
Solid-Phase αvβ5 Binding Assay (ELISA): A 96-well microtiter plate was precoated with streptavidin (Thermo Scientific Reacti-Bind StreptAvidin Coated High Binding Capacity plate) was used. Biotinylated soluble αvβ5 protein (2 μg/mL) in TBS with 1% BSA was added to the wells, and the plate was incubated for 1 hr at 25° C. The plate was washed with wash buffer (0.05% Tween-20 in PBS), and purified humanized ALULA antibody in TBS containing 1% BSA, 1 mM CaCl2, and 1 mM MgCl2 were added (50 μl/well). The plate was incubated for 1 hr at 25° C., washed, and then incubated for 1 hr with 50 μl/well of […] goat anti-human secondary antibody. Bound antibody was detected using 3,3′,5,5′-tetramethylbenzidine (TMB). Binding was indicated by the absorbency measured at 450 nm.
as §1

Residue numbers refer to the chain shown, from its start. Names and notes keep the numbering of the source. Like-named read-outs stand apart in the source and are kept apart here.

T1 sequence (P06756 31-992 limits assumed, chain 1 of 2): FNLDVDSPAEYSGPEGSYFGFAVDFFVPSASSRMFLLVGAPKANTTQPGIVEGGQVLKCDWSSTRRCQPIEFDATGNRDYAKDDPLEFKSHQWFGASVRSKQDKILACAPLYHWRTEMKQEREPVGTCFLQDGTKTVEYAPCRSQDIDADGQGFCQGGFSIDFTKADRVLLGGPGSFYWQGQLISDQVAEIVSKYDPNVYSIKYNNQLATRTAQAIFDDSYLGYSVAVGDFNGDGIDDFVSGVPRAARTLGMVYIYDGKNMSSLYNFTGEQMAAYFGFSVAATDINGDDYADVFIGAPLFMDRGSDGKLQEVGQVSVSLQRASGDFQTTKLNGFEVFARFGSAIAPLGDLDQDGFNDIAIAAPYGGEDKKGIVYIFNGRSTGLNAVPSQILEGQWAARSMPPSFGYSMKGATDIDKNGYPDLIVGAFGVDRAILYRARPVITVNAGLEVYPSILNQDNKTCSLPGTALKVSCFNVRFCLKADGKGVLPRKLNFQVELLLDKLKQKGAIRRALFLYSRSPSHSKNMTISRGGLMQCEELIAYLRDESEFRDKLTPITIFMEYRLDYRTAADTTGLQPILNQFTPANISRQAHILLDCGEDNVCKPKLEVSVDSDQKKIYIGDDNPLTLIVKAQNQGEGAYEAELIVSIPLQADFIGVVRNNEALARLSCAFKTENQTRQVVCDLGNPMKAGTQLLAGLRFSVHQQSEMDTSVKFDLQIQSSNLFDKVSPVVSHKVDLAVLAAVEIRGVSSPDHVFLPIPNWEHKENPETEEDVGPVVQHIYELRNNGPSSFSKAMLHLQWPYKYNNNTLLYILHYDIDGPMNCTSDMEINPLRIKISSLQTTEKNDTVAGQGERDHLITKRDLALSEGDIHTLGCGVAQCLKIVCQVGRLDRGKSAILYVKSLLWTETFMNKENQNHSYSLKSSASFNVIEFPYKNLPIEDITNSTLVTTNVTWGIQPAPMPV
T1 sequence (P18084 24-719 limits assumed, chain 2 of 2): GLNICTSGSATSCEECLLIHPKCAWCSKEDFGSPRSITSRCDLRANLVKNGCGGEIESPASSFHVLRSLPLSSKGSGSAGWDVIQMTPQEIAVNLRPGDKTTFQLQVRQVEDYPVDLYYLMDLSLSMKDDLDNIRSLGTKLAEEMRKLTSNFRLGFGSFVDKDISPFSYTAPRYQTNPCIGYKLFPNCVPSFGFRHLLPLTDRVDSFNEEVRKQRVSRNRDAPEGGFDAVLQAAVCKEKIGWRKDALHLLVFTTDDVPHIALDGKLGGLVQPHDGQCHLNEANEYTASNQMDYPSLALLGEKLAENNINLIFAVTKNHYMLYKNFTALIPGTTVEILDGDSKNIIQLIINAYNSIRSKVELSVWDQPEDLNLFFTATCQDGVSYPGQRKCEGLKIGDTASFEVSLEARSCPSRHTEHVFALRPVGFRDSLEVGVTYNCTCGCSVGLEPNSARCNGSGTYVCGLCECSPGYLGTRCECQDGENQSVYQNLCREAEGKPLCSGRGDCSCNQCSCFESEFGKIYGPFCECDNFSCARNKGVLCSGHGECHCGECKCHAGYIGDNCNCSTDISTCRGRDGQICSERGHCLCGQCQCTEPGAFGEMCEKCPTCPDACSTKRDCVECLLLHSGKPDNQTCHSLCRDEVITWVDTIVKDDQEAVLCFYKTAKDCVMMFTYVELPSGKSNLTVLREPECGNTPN
T2 sequence (P06756 31-1048 limits assumed, chain 1 of 2): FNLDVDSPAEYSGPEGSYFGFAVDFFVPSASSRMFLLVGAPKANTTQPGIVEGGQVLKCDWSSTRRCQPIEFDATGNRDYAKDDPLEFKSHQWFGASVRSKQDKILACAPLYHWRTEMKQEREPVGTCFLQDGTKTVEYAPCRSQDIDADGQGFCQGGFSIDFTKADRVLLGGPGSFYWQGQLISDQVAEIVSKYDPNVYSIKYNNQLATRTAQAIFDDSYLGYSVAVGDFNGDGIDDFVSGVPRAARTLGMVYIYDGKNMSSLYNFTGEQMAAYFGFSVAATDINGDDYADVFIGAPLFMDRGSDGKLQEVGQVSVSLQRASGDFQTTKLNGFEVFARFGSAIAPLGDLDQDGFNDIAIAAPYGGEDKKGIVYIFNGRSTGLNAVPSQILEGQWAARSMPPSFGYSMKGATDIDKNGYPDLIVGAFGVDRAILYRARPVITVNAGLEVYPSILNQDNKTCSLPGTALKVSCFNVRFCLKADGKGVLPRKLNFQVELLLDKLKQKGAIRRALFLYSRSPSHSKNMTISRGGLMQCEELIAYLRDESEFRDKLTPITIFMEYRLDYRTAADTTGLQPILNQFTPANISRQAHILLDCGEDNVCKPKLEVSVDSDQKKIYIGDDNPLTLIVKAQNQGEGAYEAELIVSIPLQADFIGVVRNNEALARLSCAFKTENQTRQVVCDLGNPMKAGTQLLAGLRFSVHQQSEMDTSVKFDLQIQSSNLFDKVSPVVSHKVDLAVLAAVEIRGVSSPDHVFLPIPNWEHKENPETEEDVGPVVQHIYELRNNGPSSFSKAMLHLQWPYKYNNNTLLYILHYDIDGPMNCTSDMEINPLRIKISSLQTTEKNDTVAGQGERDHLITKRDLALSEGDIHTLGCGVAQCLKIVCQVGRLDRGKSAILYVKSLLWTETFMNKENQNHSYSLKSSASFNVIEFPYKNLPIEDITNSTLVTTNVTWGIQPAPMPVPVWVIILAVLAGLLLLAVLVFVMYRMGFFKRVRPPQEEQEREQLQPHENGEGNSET
T2 sequence (P18084 24-799 limits assumed, chain 2 of 2): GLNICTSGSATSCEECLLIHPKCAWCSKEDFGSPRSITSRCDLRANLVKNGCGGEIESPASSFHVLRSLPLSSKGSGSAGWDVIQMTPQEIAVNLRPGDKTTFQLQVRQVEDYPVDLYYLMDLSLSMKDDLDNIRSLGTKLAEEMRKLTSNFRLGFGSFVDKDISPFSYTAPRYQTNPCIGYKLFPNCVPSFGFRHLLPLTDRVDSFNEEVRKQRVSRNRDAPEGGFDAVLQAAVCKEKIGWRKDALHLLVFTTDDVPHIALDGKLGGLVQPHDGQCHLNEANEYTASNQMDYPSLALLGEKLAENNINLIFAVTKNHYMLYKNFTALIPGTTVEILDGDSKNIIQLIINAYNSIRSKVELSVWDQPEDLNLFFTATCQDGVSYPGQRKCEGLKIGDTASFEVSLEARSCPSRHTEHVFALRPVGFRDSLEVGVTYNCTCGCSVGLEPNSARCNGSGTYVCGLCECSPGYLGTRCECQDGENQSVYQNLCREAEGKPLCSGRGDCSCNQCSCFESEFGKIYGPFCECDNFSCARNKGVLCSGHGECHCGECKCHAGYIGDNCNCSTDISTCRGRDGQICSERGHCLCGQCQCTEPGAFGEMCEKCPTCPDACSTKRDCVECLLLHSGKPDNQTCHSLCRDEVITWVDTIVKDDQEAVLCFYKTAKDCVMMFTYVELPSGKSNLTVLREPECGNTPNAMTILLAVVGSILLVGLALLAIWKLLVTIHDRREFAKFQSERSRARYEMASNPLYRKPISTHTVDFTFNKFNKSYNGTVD

B1: VH0/VL0 Agly-hIgG1(T299A) (antibody, V domains shown)
VH: EVQLVESGGGLVKPGGSLRLSCAASGYTFTSYWMHWVRQAPGKGLEWVGAIYPGNSDTSYNQKFKGRFTISRDDSKNTLYLQMNSLKTEDTAVYYCTTTTYGYDWFAYWGQGTLVTVSS
VL: DIQMTQSPSSVSASVGDRVTITCKSSQSVLYSSNQKNYLAWYQQKPGKAPKLLIYWASTRESGVPSRFSGSGSGTDFTLTISSLQPEDFATYYCHQYLSSLTFGQGTKVEIK
notes: also called H0/L0
Take B1: the IC50 in assay [1] worked out at 11.1 nM; in assay [4], 18.3 nM. For the same molecule, the “VN adhesion inhibition, αvβ5-BaF3 (IC50, nM)” value (“VN adhesion inhibition” below) came out at 1770 nM in assay [2] and 3 nM in assay [3]. Also, the EC50 was found to be 1120 nM in assay [5] and 1.2 nM in assay [6].

B2: VH0/VL3 Agly-hIgG1(T299A) (antibody, V domains shown)
VH: B1 VH
VL: DIQMTQSPSSLTVSVGDRVTMSCKSSQSVLYSSNQKNYLAWYQQKPGKSPKLLIYWASTRESGVPDRFTGSGSGTDFTLTISSVQPEDFATYYCHQYLSSLTFGAGTKLEIK
notes: also called H0/L3
For the molecule B2, the “VN adhesion inhibition” value in assay [2] came out at 494 nM. Further, the EC50 in assay [5] amounted to 1270 nM; in assay [6], 0.9 nM.

B3: VH0/VL2 Agly-hIgG1(T299A) (antibody, V domains shown)
VH: B1 VH
VL: B2 VL with D1N, T12S, V13A, V84L, A105Q
notes: also called H0/L2
Turning to B3, in assay [2], the “VN adhesion inhibition” value worked out at 1970 nM. Also, the EC50 in assay [5] came to 855 nM; in assay [6] it was 1 nM.

B4: VH4/VL1 Agly-hIgG1(T299A) (antibody, V domains shown)
VH: B1 VH with L4V, E6Q, G16E, A23K, R38K, R67K, R72A, D74T, K76P, L79A
VL: B1 VL with V11L, I21M, S66D, V109L
notes: also called H4/L1
For the molecule B4, the IC50 in assay [1] came to 0.9 nM; in assay [4] it was 2.2 nM. In addition, the “VN adhesion inhibition” value in assay [2] was determined as 59.8 nM; in assay [3], 1 nM. Moreover, the results for the EC50 in assay [5] and in assay [6] were 126 nM and 0.4 nM, respectively.

B5: VH1/VL3 Agly-hIgG1(T299A) (antibody, V domains shown)
VH: B1 VH with L4V, R72A, D74T
VL: B2 VL
notes: also called H1/L3
In the case of B5, the “VN adhesion inhibition” value in assay [2] worked out at 1840 nM. The EC50 in assay [5] was 2930 nM; in assay [6], 2.9 nM.

B6: VH2/VL3 Agly-hIgG1(T299A) (antibody, V domains shown)
VH: B1 VH with L4V, E6Q, G16E, R38K, R67K, R72A, D74T, K76S, L79A
VL: B2 VL
notes: also called H2/L3
In the case of B6, in assay [2], the “VN adhesion inhibition” value was found to be 303 nM. Besides, the results for the EC50 in assay [5] and in assay [6] were 990 nM and 1 nM, respectively.

B7: VH0/VL1 Agly-hIgG1(T299A) (antibody, V domains shown)
VH: B1 VH
VL: B1 VL with V11L, I21M, S66D, V109L
notes: also called H0/L1
Turning to B7, the IC50 in assay [1] is 11.9 nM; in assay [4] it was 14.2 nM. The “VN adhesion inhibition” value was found to be 1620 nM in assay [2] and 2.2 nM in assay [3]. For the same molecule, the EC50 in assay [5] worked out at 798 nM; in assay [6], 1.3 nM.

B8: VH3/VL1 Agly-hIgG1(T299A) (antibody, V domains shown)
VH: B1 VH with L4V, A23K, R38K, R67K, I70L, R72A, D73V, D74T, K76S, L79A
VL: B1 VL with V11L, I21M, S66D, V109L
notes: also called H3/L1
For B8, in assay [2], the “VN adhesion inhibition” value is 360 nM. Also, the EC50 in assay [5] was 1930 nM; in assay [6] it was 1.2 nM.

B9: VH2/VL0 Agly-hIgG1(T299A) (antibody, V domains shown)
VH: B1 VH with L4V, E6Q, G16E, R38K, R67K, R72A, D74T, K76S, L79A
VL: B1 VL
notes: also called H2/L0
For the molecule B9, the IC50 turned out to be 2.4 nM in assay [1] and 3.4 nM in assay [4]. The “VN adhesion inhibition” value came out at 476 nM in assay [2] and 1.3 nM in assay [3]. Also, the results for the EC50 in assay [5] and in assay [6] were 354 nM and 0.5 nM, respectively.

B10: VH1/VL0 Agly-hIgG1(T299A) (antibody, V domains shown)
VH: B1 VH with L4V, R72A, D74T
VL: B1 VL
notes: also called H1/L0
As to B10, the “VN adhesion inhibition” value in assay [2] came to 3300 nM. Also, the EC50 in assay [5] was 3680 nM; in assay [6], 1 nM.

B11: VH4/VL3 Agly-hIgG1(T299A) (antibody, V domains shown)
VH: B1 VH with L4V, E6Q, G16E, A23K, R38K, R67K, R72A, D74T, K76P, L79A
VL: B2 VL
notes: also called H4/L3
Consider B11, for which, in assay [2], the “VN adhesion inhibition” value was 64.8 nM. The EC50 in assay [5] amounted to 162 nM; in assay [6], 1.7 nM.

B12: VH5/VL3 Agly-hIgG1(T299A) (antibody, V domains shown)
VH: EVQVQQSGGGLVKPGGSLRLSCKASGYTFTSYWMHWVKQAPGKGLEWVGAIYPGNSDTSYNQKFKGKATLSAVTSPNTAYLQMNSLKTEDTAVYYCTTTTYGYDWFAYWGQGTLVTVSS
VL: B2 VL
notes: also called H5/L3
In the case of B12, in assay [2], the “VN adhesion inhibition” value turned out to be 72.2 nM. Besides, the EC50 in assay [5] worked out at 422 nM; in assay [6], 1.4 nM.

B13: VH1/VL1 Agly-hIgG1(T299A) (antibody, V domains shown)
VH: B1 VH with L4V, R72A, D74T
VL: B1 VL with V11L, I21M, S66D, V109L
notes: also called H1/L1
With B13, the “VN adhesion inhibition” value in assay [2] turned out to be 2520 nM. Moreover, the values for the EC50 in assay [5] and in assay [6] were 3360 nM and 1.9 nM, respectively.

B14: VH1/VL2 Agly-hIgG1(T299A) (antibody, V domains shown)
VH: B1 VH with L4V, R72A, D74T
VL: B2 VL with D1N, T12S, V13A, V84L, A105Q
notes: also called H1/L2
In the case of B14, the “VN adhesion inhibition” value in assay [2] came out at 1730 nM. Also, the EC50 worked out at 5370 nM in assay [5] and 2.3 nM in assay [6].

B15: VH3/VL3 Agly-hIgG1(T299A) (antibody, V domains shown)
VH: B12 VH with Q5V, Q6E, A68F, P76S
VL: B2 VL
notes: also called H3/L3
As to B15, in assay [2], the “VN adhesion inhibition” value came out at 227 nM. Further, the EC50 came out at 6290 nM in assay [5] and 1.2 nM in assay [6].

B16: VH2/VL1 Agly-hIgG1(T299A) (antibody, V domains shown)
VH: B12 VH with Q5V, G16E, K23A, A68F, L70I, V73D, P76S
VL: B1 VL with V11L, I21M, S66D, V109L
notes: also called H2/L1
In the case of B16, the “VN adhesion inhibition” value in assay [2] was 318 nM. The results for the EC50 in assay [5] and in assay [6] were 405 nM and 1 nM, respectively.
